US20100135987A1
“And” between values parts separate entries of the source, which are not always exact repeats. Equal values may be shown once.

What was measured:
[1] = target: Protein A (ligand of MabSelect resin, GE Healthcare) (UniProt P38507); assay: dynamic binding capacity of MabSelect column at 5% breakthrough, load at 300 cm/hr
[2] = target: Protein A (ligand of MabSelect resin, GE Healthcare) (UniProt P38507); assay: dynamic binding capacity of MabSelect column at 5% breakthrough, load at 300 cm/hr, average of Exp. 1 and 2
[3] = target: Protein A (ligand of MabSelect resin, GE Healthcare) (UniProt P38507); assay: dynamic binding capacity of MabSelect column at 5% breakthrough, dual-flow rate load, average of Exp. 3 and 4
[4] = target: Protein A (ligand of MabSelect resin, GE Healthcare) (UniProt P38507); assay: dynamic binding capacity of MabSelect column at 5% breakthrough, 300 cm/hr to 35 mg Ab/mL resin, then 150 cm/hr

Question: For anti-IL-12 antibody (ABT-874), which DBC at 5% BT (mg Ab/mL resin) [1] is on record?
Answer: 43.7 and 44.9

Question: And the DBC at 5% BT (mg Ab/mL resin) [2]?
Answer: 44.3

Question: And the DBC at 5% BT (mg Ab/mL resin) [3]?
Answer: 51.7

Question: What about the DBC at 5% BT (mg Ab/mL resin) [4] of the same substance?
Answer: 51.6 and 51.7
